This is an account of results in patent US20220251222A1 (Johns Hopkins, published 2022).

The target in experiment [1] is T1, IL-8RB expressed on lentivirally transduced HEK 293T cells (UniProt P25025 1-360, limits assumed).
T1 construct: whole, on cells; also called IL-8R^+ cells; IL-6Rα^-/IL-8R^+ HEK 293T cells
T1 sequence (looked up): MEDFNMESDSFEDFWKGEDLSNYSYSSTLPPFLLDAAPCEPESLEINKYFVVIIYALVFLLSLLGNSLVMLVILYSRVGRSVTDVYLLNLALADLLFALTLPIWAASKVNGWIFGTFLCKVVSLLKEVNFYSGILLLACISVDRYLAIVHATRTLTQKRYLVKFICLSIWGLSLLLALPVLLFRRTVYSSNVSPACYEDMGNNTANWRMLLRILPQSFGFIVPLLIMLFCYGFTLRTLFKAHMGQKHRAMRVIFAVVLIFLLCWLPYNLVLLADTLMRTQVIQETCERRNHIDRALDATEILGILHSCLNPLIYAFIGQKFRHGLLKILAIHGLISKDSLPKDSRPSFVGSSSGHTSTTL
The experiment in a line: competition with 400 nM His-tagged IL-8 on IL-6Rα-/IL-8R+ HEK 293T cells, flow cytometry. The procedure: IL-6Rα⁺/IL-8R⁻ and IL-6Rα⁻/IL-8R⁺ HEK 293T cells were cultured as previously described, and were trypsinized, resuspended in PBSA, and aliquoted into 96-well plates (2×10⁵ cells per well). IL-6Rα⁺/IL-8R⁻ 293T cells were incubated with titrations of various monoclonal or bispecific antibodies in the presence of saturating concentration of biotinylated IL-6 (100 nM) (Acro Biosystem, cat #: IL6-H8218-25UG) for 2 hr at 4° C. with rotation. Cells were then washed and incubated with 1:200 dilution of Alexa Fluor 647-conjugated streptavidin (Fisher Scientific, cat #: S21374) in PBSA for 15 min at 4° C. After a final wash, cells were resuspended in PBSA and analyzed on a CytoFLEX flow cytometer (Beckman Coulter). Curves were fitted to a first-order logistic model and IC₅₀ values were calculated using GraphPad Prism data analysis software. Mean fluorescence intensity (MFI) of unstimulated cells was subtracted. Similarly, IL-6Rα⁻/IL-8R⁺ 293T cells were incubated with titrations of various monoclonal or bispecific antibodies with saturating concentration of His-tagged IL-8 (400 nM) (Sino Biological, cat #: 10098-H08Y-100) for 2 hr at 4° C. with rotation. […] After a final wash, cells were resuspended in PBSA and analyzed on a CytoFLEX flow cytometer (Beckman Coulter). Curves were fitted to a first-order logistic model and IC₅₀ values were calculated using GraphPad Prism data analysis software. […]
On the technique in general: A flow cytometer gives signals particle by particle.

The target of experiment [2] is T1, IL-8RB expressed on lentivirally …. The experiment in a line: flow cytometry titration on IL-6Rα+/IL-8R+ HEK 293T cells; IL-6Rα+/IL-8R+ 293T cells (FIG. 7C). The procedure:
(§1) HEK 293T cells were cultured in Dulbecco's modified Eagle's medium (DMEM, Mediatech) supplemented with 10% (Hyclone), 2 mM L-glutamine and 100 U/mL penicillin-streptomycin (Gibco). For surface binding assays, IL-6Rα⁺/IL-8R⁻, IL-6Rα⁻/IL-8R⁺, IL-6Rα⁺/IL-8R⁺, and […] HEK 293T cells were trypsinized for detachment, resuspended in PBSA, and then aliquoted into 96-well plates (1×10⁵ cells per well). Cells were incubated with titrations of various monoclonal or bispecific antibodies for 2 hr at 4° C. with rotation. Cells were then washed and incubated with a 1:50 dilution of fluorescein isothiocyanate (FITC)-conjugated anti-human IgG1 antibody (Sigma-Aldrich, Clone 8c/6-39) in PBSA for 15 min at 4° C. After a final wash, cells were resuspended in PBSA and analyzed on a CytoFLEX flow cytometer (Beckman Coulter). Binding isotherms were fitted to a first-order logistic model and KD values were calculated using GraphPad Prism data analysis software. Mean fluorescence intensity (MFI) of unstimulated cells was subtracted. […]
(§2) To determine whether engineered bispecific binding agents BS1 and BS2 specifically engage target antigens in a physiologically relevant context, antibody binding to IL-6Rα⁺/IL-8R⁻, IL-6Rα⁻/IL-8R⁺, IL-6Rα⁺/IL-8R⁺, and IL-6Rα⁻/IL-8R⁻ lentivirally transduced HEK 293T cells was measured via flow cytometry. […]

Experiment [3] has as its target T2, IL-6Rα expressed on lentivirally transduced HEK 293T cells (UniProt P08887 20-468, limits assumed).
T2 construct: whole, on cells; also called IL-6Rα^+ cells; IL-6Rα^+/IL-8R^- HEK 293T cells
T2 sequence (looked up): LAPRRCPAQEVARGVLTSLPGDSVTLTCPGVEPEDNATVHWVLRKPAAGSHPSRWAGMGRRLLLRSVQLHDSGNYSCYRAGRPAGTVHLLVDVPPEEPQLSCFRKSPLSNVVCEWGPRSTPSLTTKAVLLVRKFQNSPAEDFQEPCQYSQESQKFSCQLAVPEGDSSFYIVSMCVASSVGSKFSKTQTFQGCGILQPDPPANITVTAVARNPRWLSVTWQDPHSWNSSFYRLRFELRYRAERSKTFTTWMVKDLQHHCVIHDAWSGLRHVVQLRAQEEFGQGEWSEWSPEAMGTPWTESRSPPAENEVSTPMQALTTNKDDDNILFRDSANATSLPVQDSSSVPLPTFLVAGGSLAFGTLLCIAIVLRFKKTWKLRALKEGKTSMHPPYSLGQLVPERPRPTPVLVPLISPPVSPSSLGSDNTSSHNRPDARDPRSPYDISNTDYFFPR
In words: flow cytometry binding titration on IL-6R+/IL-8R- HEK 293T cells, detected with FITC anti-human IgG1. How it is done: as §1, §2

The target in experiment [4] is T1, IL-8RB expressed on lentivirally …. The experiment in a line: flow cytometry binding titration on IL-6R-/IL-8R+ HEK 293T cells, detected with FITC anti-human IgG1. The procedure:
as §1, §2

Experiment [5] deals with T3, human IL-6Rα extracellular domain (ECD), residues 89-303 of the mature protein, with C-terminal biotin … (human, UniProt P08887 108-322, biotinylated with BirA ligase on the biotin acceptor peptide).
T3 construct: range 89-303; The range 89-303 counts on the mature protein, not on the precursor; Any linkers between the ECD, BAP and His tag are not described; also called IL-6Rα ECD; recombinant IL-6Rα
T3 sequence: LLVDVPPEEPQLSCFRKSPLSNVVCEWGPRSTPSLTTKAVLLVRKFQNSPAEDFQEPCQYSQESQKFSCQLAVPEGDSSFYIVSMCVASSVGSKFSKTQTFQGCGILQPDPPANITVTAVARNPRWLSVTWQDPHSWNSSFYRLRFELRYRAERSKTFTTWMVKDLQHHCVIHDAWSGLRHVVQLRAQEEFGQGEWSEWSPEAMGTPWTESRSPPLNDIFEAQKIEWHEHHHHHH
In words: equilibrium bio-layer interferometry titration, biotinylated human IL-6Rα ECD immobilized on streptavidin tips. The procedure: Biotinylated human IL-6Rα ECD was immobilized to streptavidin-coated tips for analysis on an Octet® Red96 BLI instrument (ForteBio). Less than 5 signal units (nm) of receptor was immobilized to minimize mass transfer effects. Tips were exposed to serial dilutions of the anti-IL-6R antibody tocilizumab, the anti-IL-8R antibody 10H2, BS1, or BS2 in a 96-well plate for 300 s and dissociation was measured for 600 s. Surface regeneration for all interactions was conducted using 15 s exposure to 0.1 M glycine pH 3.0. Experiments were carried out in PBSA (phosphate-buffered saline [PBS] pH 7.3 plus 0.1% bovine serum albumin [BSA, Thermo]) at 25° C. Data was visualized and processed using the Octet® Data Analysis software version 7.1 (ForteBio). Equilibrium titration curve fitting and equilibrium dissociation constant (KD) value determination was implemented in GraphPad Prism software using a first-order logistic model. Experiments were reproduced two times with similar results.
To confirm functionality of our bispecific agents, antibodies were titrated against recombinant IL-6Rα via BLI. […] Moreover, both tocilizumab-containing engineered bispecific binding agents also bound IL-6Rα (FIG. 5).
A general note: BLI is a label-free optical method that tracks binding on a fibre tip over time.

B1: 10H2, recombinant monoclonal hIgG1 (anti-IL-8RB) (antibody, V domains shown)
VH: EVQLVETGGRLVQPKGSLKLSCAVSGITFKTNAMNWVRQAPGKGLEWVARIRTKSYNYATYYADSVKDRFTISRDDSQSILYLQMNNLKTEDTAMYHCVREGRWGQGTLVTVSA
VL: QAVVTQESALTTSPGETVTLTCRSSTGAVTTSNYANWVQEKPDHLFTGLIGGTNNRPPGVPARFSGSLIGDKAALTITGAQIEDEAIYFCALWYSNHLVFGGGTKLTVL
notes: also called anti-IL-8RB antibody
For orientation: IC50 means the concentration that gives 50% inhibition. A low value points to inhibition by little substance. For orientation: Kd means the concentration at which binding is half-saturated. Low values mean a tighter complex, high ones a looser complex. Usually EC50 (read off the curve) stands for the concentration that produces a half-maximal response. Higher therefore signals weaker potency. In turn, B1 registered an IC50 in experiment [1] of 22 nM. The Kd in experiment [2] was found to be 4.1 nM. Moreover, the binding result in experiment [3] is listed as “no binding (tested: 1e-6 M)”; in experiment [5], “no binding (tested: about 5e-7 M)”. Moreover, the “EC50 (read off the curve)” value in experiment [4] is ~4 nM.
